Measurements taken from paper PMC2780581 (Biochemistry, 2008).

Target: the molecule itself
Test: SEC

B1: (S)-2-hydroxypropylphosphonic acid epoxidase from Pseudomonas syringae (enzyme, Pseudomonas syringae PB-5123, UniProt Q9JN69 1-190, looked up)
chain: MDVRTLAVGKAHLEALLATRKMTLEHLQDVRHDATQVYFDGLEHLQNVAQYLAIPLSEFFVGQTQSDLDDGVKIARRNGGFKREEIRGGVHYYTYEHLVTTNQDPGLMALRLDLHSDDEQPLRLNGGHGSREIVYVTRGAVRVRWVGDNDELKEDVLNEGDSIFILPNVPHSFTNHVGGAKSEIIAINYG
modifications: Tyr95 highly likely post-translationally hydroxylated to DOPA
stoichiometry N: 3
